From article PMC12420824, “Discovery of a selective alpha-kinase 1 inhibitor for the rare genetic disease ROSAH syndrome” (Nature Communications, 2025) come the findings set out here.

Series [1] deals with the molecule itself. The experiment in a line: AlphaScreen or HTRF; TR-FRET after kinase reaction (260 nM HA-His-TIFA, 2 nM ALPK1, 6.25 uM ATP, 20 nM ADP-D-heptose, 1.5 h, 27 °C); anti-HA-Eu cryptate and anti-HA-d2 bound to the same TIFA oligomer, 26 °C for 1 h. For orientation: Bead proximity is the source of the signal in Alpha formats.
Series [2] deals with T1, human ALPK1 N-terminal regulatory domain aa. 1-446 (human, UniProt Q96QP1-1 1-446).
T1 construct: The sentence names the His-TEV tag before the mouse kinase domain; it is read here as applying to both constructs; also called ALPK1-ND; human N-terminal regulatory domain; source: E. coli, purified (Ni column; His-tag cleaved with TEV protease)
The experiment in a line: crystal structure; mALPK1-KD and ALPK1-ND mixed, complex purified by size exclusion chromatography, 10 mg/ml; hanging drop vapor diffusion, 12% PEG 3350, 0.1 M CBTP pH 8.2. The note with it: both partners purified. On the technique in general: In gel filtration, larger molecules generally elute earlier.

T1 sequence (Q96QP1 1-446): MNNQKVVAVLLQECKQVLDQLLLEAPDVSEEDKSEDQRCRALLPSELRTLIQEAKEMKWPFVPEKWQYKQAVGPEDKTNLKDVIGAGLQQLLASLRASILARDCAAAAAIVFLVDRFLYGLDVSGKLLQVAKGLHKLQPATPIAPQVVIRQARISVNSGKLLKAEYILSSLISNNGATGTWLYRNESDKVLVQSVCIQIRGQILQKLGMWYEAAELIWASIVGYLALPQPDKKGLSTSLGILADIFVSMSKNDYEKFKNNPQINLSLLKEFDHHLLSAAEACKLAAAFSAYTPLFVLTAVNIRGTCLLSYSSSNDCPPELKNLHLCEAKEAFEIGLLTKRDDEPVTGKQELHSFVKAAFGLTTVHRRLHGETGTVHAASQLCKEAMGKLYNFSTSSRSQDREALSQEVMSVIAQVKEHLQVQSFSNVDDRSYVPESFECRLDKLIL

B1: recombinant HA-His-tagged TIFA, phosphorylated by ALPK1 (natural protein, human, UniProt Q96CG3 1-184, looked up)
chain: MTSFEDADTEETVTCLQMTVYHPGQLQCGIFQSISFNREKLPSSEVVKFGRNSNICHYTFQDKQVSRVQFSLQLFKKFNSSVLSFEIKNMSKKTNLIVDSRELGYLNKMDLPYRCMVRFGEYQFLMEKEDGESLEFFETQFILSPRSLLQENNWPPHRPIPEYGTYSLCSSQSSSPTEMDENES
modifications: phosphorylated by recombinant ALPK1 in the kinase reaction; residues not stated for this experiment
notes: TIFA, human; source: E. coli, purified (Ni column, desalted); phosphorylated in vitro by recombinant ALPK1; not shown: HA, N-terminal, kept
In the case of B1, in series [1], the binding result is recorded as “binds”.

B2: Mouse ALPK1 kinase domain aa. 949-1231 (domain or fragment)
chain: not shown
notes: Used for crystallography in complex with the human N-terminal domain (a complex of two species' forms); also called mALPK1-KD; mouse kinase domain; source: E. coli, purified (Ni column; His-tag cleaved with TEV protease)
For B2, the binding result in series [2] is “binds”.
